The record followed here is patent US20260000597A1 (priority 2018, published 2026).

In the experiment the target is AchR (Homo sapiens, UniProt P02708). The experiment is described as follows: ELISA of screened peptide phages on AchR versus streptavidin (OD450). The class given is binding. Conditions: absorbance at 450 nm. An outline of the steps:
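Reported as the ratio of AchR to streptavidin OD450, with TMB read-out after HRP anti-M13 detection. Wells coated with 5 μg/ml target overnight at 4 °C and BSA-blocked, then incubated 1 h at 30 °C with helper-rescued phage from individual plaques.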
Background: ELISA stands for enzyme-linked immunosorbent assay.

[1] abbreviates: ELISA of selected 14-mer (L3) peptide phages on AchR, Spep-2 positive control.
The mark [2] stands for this setting: phage ELISA, 5 μg/ml AchR, 4th and 5th round biopanning phages.
[3] abbreviates: ELISA of selected 11-mer (L2) peptide phages on AchR, Spep-2 positive control.

Sequence of AchR (P02708 21-457): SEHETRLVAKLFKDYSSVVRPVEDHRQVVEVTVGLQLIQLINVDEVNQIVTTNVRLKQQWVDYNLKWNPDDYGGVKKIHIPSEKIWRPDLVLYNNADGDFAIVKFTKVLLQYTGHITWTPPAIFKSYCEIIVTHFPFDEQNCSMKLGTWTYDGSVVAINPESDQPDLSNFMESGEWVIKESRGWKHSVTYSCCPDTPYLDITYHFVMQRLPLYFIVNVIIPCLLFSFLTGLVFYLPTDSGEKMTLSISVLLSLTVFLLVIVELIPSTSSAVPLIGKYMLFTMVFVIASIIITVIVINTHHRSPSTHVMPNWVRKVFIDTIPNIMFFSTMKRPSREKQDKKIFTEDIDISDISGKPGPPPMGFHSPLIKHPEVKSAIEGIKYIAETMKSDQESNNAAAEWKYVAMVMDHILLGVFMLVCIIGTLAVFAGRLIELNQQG

Regarding “L3-74 (IAIRPRKMTLKIHP; AchR binding peptide) [Peptide L3-74]”, the OD under setting [1] came out at 0.726.
“L3-177 (FQPKSRRAETKHSY; AchR binding peptide) [Peptide L3-177]” yielded an OD under setting [1] of 0.735.
Still for that read-out and setting: next, “L3-57 (EEIKQKKLHLRVWF; AchR binding peptide) [Peptide L3-57]”: 0.674.
Regarding KSRKHCNR [Peptide L1-70], the OD under setting [2] was 0.668.
For the substance “L3-138 (TNQRPRRETAKTIE; AchR binding peptide) [Peptide L3-138]”, the OD under setting [1] is 0.576.
Still for that read-out and setting: next, “L3-65 (CLEKLRKAVHRQRR; AchR binding peptide) [Peptide L3-65]”: 0.731.
Under setting [3], “L2-177 (LNSKPRRVEFK; AchR binding peptide) [Peptide L2-177]” displayed an OD of 0.768.
Turning to “L2-22 (MMMRHKRCQYR; AchR binding peptide) [Peptide L2-22]”, the OD under setting [3] is on record as 0.75.
RAKRMCCK [Peptide L1-8] returned an OD under setting [2] of 0.653.
Same read-out and setting: in the case of KAKRDYLR [Peptide L1-145] it was 0.54.
As for “L2-11 (GIPKYRRGCSR; AchR binding peptide) [Peptide L2-11]”, the OD under setting [3] came out at 0.791.
With KERKLWWK [Peptide L1-171], the OD under setting [2] stood at 0.583.
The same measure, in the same setting: in the case of KDKKTPCK [Peptide L1-193] it was 0.588; in that of RHRRANFR [Peptide L1-147], 0.415.
Take RDRKIHDK [Peptide L1-23]: under setting [2], the OD is given as 0.712.
With “L2-82 (PDTRWKRVLFK; AchR binding peptide) [Peptide L2-82]”, the OD under setting [3] came to 0.693.
As to KKRKSLLR [Peptide L1-159], the OD under setting [2] is on record as 0.593.
On the same count and under the same terms, in the case of KERKASAK [Peptide L1-63] it was 0.618.
Under setting [3], “L2-170 (QVHRNKRYTDR; AchR binding peptide) [Peptide L2-170]” displayed an OD of 0.718.
Take “L2-185 (FITRFRKMGEK; AchR binding peptide) [Peptide L2-185]”: the OD under setting [3] was determined as 0.742.
As for RNKRDENK [Peptide L1-29], the OD under setting [2] is reported as 0.646.
Consider “L3-8 (PICRWKRAPFKWYF; AchR binding peptide) [Peptide L3-8]”, for which the OD under setting [1] is reported as 0.777.
KWKRFSQR [Peptide L1-197] registered an OD under setting [2] of 0.631.
Regarding “L2-17 (GLNRWRRCHHK; AchR binding peptide) [Peptide L2-17]”, the OD under setting [3] was determined as 0.72.
Under setting [1], “L3-86 (SEVRPKKDHSRLFI; AchR binding peptide) [Peptide L3-86]” came in with an OD of 0.755.
On to “L2-24 (SFWRERKNGFR; AchR binding peptide) [Peptide L2-24]”, for which the OD under setting [3] amounted to 0.812.
The same measure, in the same setting: in the case of “L2-16 (VDVRNKKSNNR; AchR binding peptide) [Peptide L2-16]” it was 0.77; in that of “L2-73 (PPFKFRKPLGR; AchR binding peptide) [Peptide L2-73]”, 0.662.
With “L3-181 (GPCRPRRHSIRLLW; AchR binding peptide) [Peptide L3-181]”, under setting [1], the OD was found to be 0.624.
The same measure, in the same setting: in the case of “L3-102 (IMVKIRRCPARPLC; AchR binding peptide) [Peptide L3-102]” it was 0.581.
On the same count and under the same terms, in the case of “L3-92 (NLERTKKHGLKGYM; AchR binding peptide) [Peptide L3-92]” it was 0.657.
In the case of “L2-46 (CYWKAKRYPMR; AchR binding peptide) [Peptide L2-46]”, the OD under setting [3] was 0.704.
The substance KQRKPHGR [Peptide L1-67] had an OD under setting [2] of 0.593.
Same read-out and setting: in the case of RQRRNDMK [Peptide L1-9] it was 0.639.
As for “L3-116 (YGSKQRRFEEKICG; AchR binding peptide) [Peptide L3-116]”, the OD under setting [1] is 0.644.
On to KMRRIMYK [Peptide L1-64], for which the OD under setting [2] was 0.589.
Same read-out and setting: in the case of KVRKSLWK [Peptide L1-52] it was 0.56.
On the same count and under the same terms, next, RCKRCDNK [Peptide L1-120]: 0.388.
Under setting [3], “L2-13 (GGLKSKRLTTR; AchR binding peptide) [Peptide L2-13]” came in with an OD of 0.855.
On to “L3-199 (PQTRYRKYFYRPQM; AchR binding peptide) [Peptide L3-199]”, for which the OD under setting [1] is on record as 0.781.
Turning to “L3-134 (YWFRIKRAHAKGCP; AchR binding peptide) [Peptide L3-134]”, the OD under setting [1] is listed as 0.653.
Same read-out and setting: in the case of “L3-176 (MIGKCRKCGTKCYA; AchR binding peptide) [Peptide L3-176]” it was 0.739.
RQKKDFLK [Peptide L1-107] yielded an OD under setting [2] of 0.534.
Same read-out and setting: in the case of KFRKHVCK [Peptide L1-116] it was 0.492.
Consider “L3-147 (ADHRAKKTLSKFWT; AchR binding peptide) [Peptide L3-147]”, for which, under setting [1], the OD came to 0.562.
With KNRKNLYR [Peptide L1-36], under setting [2], the OD was determined as 0.553.
Substance RGKKAVRK [Peptide L1-20] showed an OD under setting [2] of 0.619.
For KIKKLSQK [Peptide L1-168], the OD under setting [2] is reported as 0.588.
“L2-119 (FCRRSKKIGRR; AchR binding peptide) [Peptide L2-119]”: the OD under setting [3] is recorded as 0.56.
The same measure, in the same setting: in the case of “L2-91 (PIDKFKRGMVR; AchR binding peptide) [Peptide L2-91]” it was 0.517; in that of “L2-115 (VRAKHRKSSLR; AchR binding peptide) [Peptide L2-115]”, 0.837.
On to KMRRAQGR [Peptide L1-34], for which the OD under setting [2] amounted to 0.634.
“L2-149 (LPMKQRKCEFR; AchR binding peptide) [Peptide L2-149]” yielded an OD under setting [3] of 0.465.
As for “L3-14 (FPGKSKKQWHRLWP; AchR binding peptide) [Peptide L3-14]”, the OD under setting [1] turned out to be 0.892.
Turning to “L2-172 (CTWRGRRPHDK; AchR binding peptide) [Peptide L2-172]”, under setting [3], the OD was 0.685.
Under setting [1], “L3-179 (YNARVKREGIKNIT; AchR binding peptide) [Peptide L3-179]” came in with an OD of 0.743.
Under setting [2], RSRRCPVK [Peptide L1-119] yielded an OD of 0.463.
Substance KLKRAMLK [Peptide L1-169] came in with an OD under setting [2] of 0.636.
Regarding “L3-198 (LPWRERRNGGRSSE; AchR binding peptide) [Peptide L3-198]”, the OD under setting [1] was 0.78.
Take “L3-2 (SFYKERKCQFRSGL; AchR binding peptide) [Peptide L3-2]”: under setting [1], the OD came to 0.841.
Still for that read-out and setting: next, “L3-194 (WAPRDRRNMGRDPA; AchR binding peptide) [Peptide L3-194]”: 0.743.
On the same count and under the same terms, next, “L3-113 (CLFKYRKSCVRLCG; AchR binding peptide) [Peptide L3-113]”: 0.766.
“L2-10 (TSQKVRKMEAK; AchR binding peptide) [Peptide L2-10]” returned an OD under setting [3] of 0.803.
As for RSKRMNGK [Peptide L1-58], the OD under setting [2] was determined as 0.472.
Under setting [2], RQRRMTPR [Peptide L1-156] showed an OD of 0.589.
Same read-out and setting: in the case of RLRRRYRR [Peptide L1-45] it was 0.597.
The same measure, in the same setting: next, KEKRAVHK [Peptide L1-48]: 0.519.
Turning to “L2-133 (DFSRDRRCLSK; AchR binding peptide) [Peptide L2-133]”, the OD under setting [3] came to 0.526.
Substance “L3-31 (LSDKKRKSLLRYDY; AchR binding peptide) [Peptide L3-31]” returned an OD under setting [1] of 0.763.
With “L2-44 (NMGRHKRPFLK; AchR binding peptide) [Peptide L2-44]”, the OD under setting [3] came out at 0.579.
Substance “L3-82 (HMCRSKRVAWKNLI; AchR binding peptide) [Peptide L3-82]” gave an OD under setting [1] of 0.783.
In turn, RPRRTHIK [Peptide L1-6] registered an OD under setting [2] of 0.652.
Regarding “L2-32 (LYMRCKKQAPR; AchR binding peptide) [Peptide L2-32]”, the OD under setting [3] was determined as 0.64.
Take “L3-24 (FVRKKRKSLLRDTR; AchR binding peptide) [Peptide L3-24]”: the OD under setting [1] is given as 0.846.
Consider “L2-75 (YILRDKKVPLK; AchR binding peptide) [Peptide L2-75]”, for which the OD under setting [3] amounted to 0.539.
For “L3-97 (WSAKGRRMGCKSTM; AchR binding peptide) [Peptide L3-97]”, under setting [1], the OD is listed as 0.684.
Still for that read-out and setting: next, “L3-111 (TWLRGRRWPDKQPQ; AchR binding peptide) [Peptide L3-111]”: 0.976.
“L2-116 (SHSRQRKTPLR; AchR binding peptide) [Peptide L2-116]”: the OD under setting [3] is 0.699.
With RGKKQLSK [Peptide L1-121], the OD under setting [2] came to 0.354.
Take “L2-179 (GIAKSKRNAGR; AchR binding peptide) [Peptide L2-179]”: the OD under setting [3] was 0.716.
In the case of RTRKCVLK [Peptide L1-89], under setting [2], the OD came to 0.551.
Still for that read-out and setting: in the case of KWRRELPR [Peptide L1-182] it was 0.585.
The same measure, in the same setting: in the case of RARKESHK [Peptide L1-166] it was 0.649.
For the substance “L3-182 (FYLRERRHQLKTEF; AchR binding peptide) [Peptide L3-182]”, the OD under setting [1] is 0.818.
Under setting [3], “L2-112 (CFFKMRRCNTK; AchR binding peptide) [Peptide L2-112]” displayed an OD of 0.646.
In turn, “L3-33 (LRQRSKRVLEKLRP; AchR binding peptide) [Peptide L3-33]” gave an OD under setting [1] of 0.751.
As to “L2-157 (NFYKCRKLQCK; AchR binding peptide) [Peptide L2-157]”, under setting [3], the OD came out at 0.731.
As for “L3-20 (CCFKLKKAYNKGPF; AchR binding peptide) [Peptide L3-20]”, the OD under setting [1] is 0.755.
Still for that read-out and setting: next, “L3-184 (DMDKVKKWVWRSFP; AchR binding peptide) [Peptide L3-184]”: 0.766.
